Assays:
EGFR-AP fusion protein = molecular target: T1, EGFR-AP fusion protein (UniProt P00533 25-645); assay: SPR (BIAcore), EGFR-AP immobilized, antibody 1.5 nM to 100 nM
T1 construct: Immobilized on the BIAcore sensor chip; construct not described

[1] = molecular target: T2, recombinant soluble hTNFSF13b (native) (human, UniProt Q9Y275 134-285); assay: SPR (BIAcore 2000), antibody captured by anti-human IgG Fc, hTNFSF13b from 50 nM, Langmuir 1:1 model
T2 construct: also called huTNFSF13b; Human TNFSF13b
T2 sequence (Q9Y275 134-285 limits assumed): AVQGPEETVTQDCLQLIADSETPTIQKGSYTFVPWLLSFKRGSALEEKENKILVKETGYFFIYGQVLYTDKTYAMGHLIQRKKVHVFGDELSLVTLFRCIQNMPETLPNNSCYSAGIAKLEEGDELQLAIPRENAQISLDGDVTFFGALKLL

Binder | Kd (EGFR-AP fusion protein) [µM] | koff (EGFR-AP fusion protein) [s⁻¹] | kon (EGFR-AP fusion protein) [M⁻¹ s⁻¹] | Kd [1] [µM]
IMC-11F8 IgG (antibody, V domains shown) VH: QVQLQESGPGLVKPSQTLSLTCTVSGGSISSGDYYWSWIRQPPGKGLEWIGYIYYSGSTDYNPSLKSRVTMSVDTSKNQFSLKVNSVTAADTAVYYCARVSIFGVGTFDYWGQGTLVTVSS VL: EIVMTQSPATLSLSPGERATLSCRASQSVSSYLAWYQQKPGQAPRLLIYDASNRATGIPARFSGSGSGTDFTLTISSLEPEDFAVYYCHQYGSTPLTFGGGTKAEIK | 0.00032 | 0.00058 | 1.86e+06 | 
4A5-3.1.1-B4 (antibody, V domains shown) VH: QVQLQQWGAGLLKPSETLSLTCAVYGGSFSGYYWSWIRQPPGKGLEWIGEINHSGSTNYNPSLKSRVTISVDTSKNQFSLKLSSVTAADTAVYYCARGYYDILTGYYYYFDYWGQGTLVTVSS VL: EIVLTQSPATLSLSPGERATLSCRASQSVSRYLAWYQQKPGQAPRLLIYDASNRATGIPARFSGSGSGTDSTLTISSLEPEDFAVYYCQQRSNWPRTFGQGTKVEIKR |  |  |  | 38

— US20140341888A1 (CORNING, published 2014)
